From the DeepSol protein solubility set come the findings set out here.

This data set is described as follows: soluble on expression in E. coli; label from the status in PepcDB or PDB records.
“MAGDPMITETQLTAIQTYALQKLAHDHSGHGRDHLQRVNRLARRLAKDEGANLNLTLAAAWLHDVIDDKLMANPAKAHQDLIVQLNAQNVTADDQTAIFAIIDHMSFSKSFNGPQKLSLEGQVVQDADRLDAIGAIGIARALYYSGHVGEKIYDPAIAPREHMTREQYRHQPGTAINHFYEKLFKLAALMNTDTAKALAAHRTAVMHEFVDQFKAEWTADDKALEHHHHHH”: the “soluble on expression in E. coli” value is reported as “soluble”.
With “MGSDKIHHHHHHMDNNTLDEYRAVYLTAEDLRLAASILYNAYHDDPFFVDTLSSSDKFAYEQKLRAAIREELNTLWQQKQALIGLFDGAHLMGVACVVTQKVPLGEGRYWHWRLKMLLGTGWQSTQAMMKKESTILELLPSQRCGILQFIALAPNEQGKGLGHQLVQAVVSWCDEQPNLEGIGVFTTQEAHTHLFKQHDFVSLGELVIGSVTGQLLFYTGQQDE”, the “soluble on expression in E. coli” value was “not soluble”.
Next, “MAGRLREMRCELSFLKNADGSACFSQGATCIWASCSGPGDVHASKASDEAMTLDISYRANCGDNKFNVLNNIIHSTLSNAINLELFPHTTISVTVHGIQDDGSMGAVAINGACFALLDNGMPFETVFCGVLIVRVKDELIIDPTAKQEAASTGRVLFSVCKGSDGHPEVCAMDAIGHWDFIQLEAAWSLAQPSASAIFDFYKTVMKRKLSVDEQLEHHHHHH”: “soluble”; “MWDSENIEELSLVIGIGLDKPDDENLELTQQILVPKIISAKEGSSSDPTQLSITKGKTVHQMMRTSALKHKPTFSQHLRLILLSKSVIADQIGMDAIINQFVRDNGTRRSSYVFITNGRTKDIFNMNDEGEPASNVIYDLTENNKVTIRTMEPVTLGEISEHLTSDDSFLIPHVGKENGKLAINGASIIKNKLWHRDLTPIEVQNISLFSGTVEGGVIDLKRDGHLFSYEVYSSNRKIKTAYKDGKFKFTVTRNIEGRLSEDWNPNEDSFKDSYIKSIEKTVEKRVHETVTSFITEKLQKEIKADVTGLGNEVRIHYPQKWKKISRKWDDDYFSNAEIDYRVNVIVRDFGTKGANKLEHHHHHH”: “not soluble”; “MSLNSFNLEGKVALVTGCKRGIGKAMAVALAQAGVDVIGVSASLESEGSDVAKAVEATGRKFSAYKCDFNSREAIYTFIEQVKAAHPVIDILVNNAGTILRAPAAEHGDSLWDEVINVNLNSQFILSRELGREMVKRGSGKVIFTASLLTFQGGITVPGYAASKGAIGQLTKALANEWAGSGVNVNAIAPGYIATDNTQALRDDPERATSILSRIPQNRWGKPEDFAGPVVFLASEAASYVNGSVMVVDGGWMGREGHHHHHH”: “not soluble”.
Then “MTLKLIENLQKLGFTGNEAKVYSSLVCLKQAKASEIAENAGVPRPKIYGTLRTMEKKGYVRIIEGEPTIFCCIQPEELILRLKSDFLLFLRETASELNSLNPGNSDFVSEGFYRERIKV”, with “not soluble”.
For “GMIKKEGPGWRIIFDSSRDNFSTLIGGETWAIELDKSEWKILVEVVMELCDQYKLVKEQLMGDEDITLELERRPWLAILNGDQYGWNLRLILSASGLFNRGAEVYWPRHVTNNVVNAMRSMWDSDYL”, the “soluble on expression in E. coli” value is “soluble”.
Then “MSLSAAEALTRIDRFVCDIKETQYGDGLHVFGAGDHGTGEIDGLIAALSARFVPPGPSGSPYRGRSDVRPTGRNLFTTDPRAVPSRAAYTQGVKLAEELLRKHLQDHGDWPKGLVMDMWGSATIRTAGEEFAMALHLAGLSPRWDDGSDRVSGFDILPLALLNRPRIDVTLRVSGLFRDMFPGLAQLFETAIAKLAERPETAADNPYLVQTPRVFGPRPGSYGLGIGTAMDDYSDEARTAAGEAWLAASSYAIDARGEITYARDALETQLTRADSFVHLQDLPETDLLMAEDYAAHEAGFAAAMQRLGKGGAAALYHLDATRPDQPRARTLTEELARVVRARAANPDWATGMMAHGFRGAAEIAATLDHLAAFAHLAGVVPDHLFDAMFDATLGRDDLVDFMQDANPQALAALRARFDALHRAGLWTSRRNSVLAELGTPAEGHHHHHH”, with “soluble”; and “MTKMLKLFDAHFHIIDYRFPLITNQSYLPPEFTVEDYLQRAKPLNICGGAVVSGSFQAFDQSYLLAALSILGSDFVGVTQLPATVSDEEIIQLNQKGIRAVRFNVKRGGSENIHRLKYFAHRIYEMVRWHVEIYVDSKDLGDLTSLLLELPAVSIDHLGLSHSGFSQLLHLVEHGIKIKASGFGRVDFDVKKALQTIAQINPDALLFGTDLPSTRAPRPFLDSDIQIIQDLFDEKLTEKILYRNARNFYSKNSSELEHHHHHH”, with “not soluble”.
For “MRTRIDYLADKYCFTERNESPRLRRQWQDVLEECRQTEAGPEERLRIALLNVDYVTSFELPFRLLLTRTPQLIAALREEWGISQKNVVFNDKRFGCVYSLKASLSGVPDTYRYHLSHRIRRVVGNENTSLPYQQVAREVKAPRERLKYALEAGLLVTALDGLFRFGSQRIAADVLRLRKAGMPVVTTTVEVHDNLTGTTRKVPAYHL”, the “soluble on expression in E. coli” value is given as “not soluble”.
Then “MTKAKDLTGKKIAILAADGVEEIELTSPRAAIEAAGGTTELISLEPGEIQSMKGDIEPQEKYRVDHVVSEVQVSDYDGLLLPGGTVNPDKLRLEEGAMKFVRDMYDAGKPIAAICHGPWSLSETGIAQGLKMTSWSSLKRELTLAGAQWVDEECVTDKGVVTSRKPDDLPAFNKKIVEEFAEGDHSSRRK”, with “soluble”; and “MAHHHHHHMNGELNIGAGRVIFYRTIAKQNRNTLPLWTLQRHLYAYHPYVWFAIASASNAEAMEKLAERLGMKLVQDATTSYKISIRRSSELLDGELNAQLQCTKMNRPWDRFLITHYVRSQMPDLRFLVRARHPIKKRVTDAYLEADILRSTRDSVQSVLSPELGEVCYCCERVIRKWAMRTQTGVTLQLVETRRTPLIITKAGDEGERLEYEWIVVLPQKAERIDIAALSAELWDYGNVLARELEPGMEEFLSHTMTAAASY”, with “not soluble”.
On to “MTRAILFDLDGTLVDTRAASWQLFSETNLAFALGIDSREAFFRAFEGNFFESLAKLCPDPQRAAAVKAHFMELLRTRYHPALIPGMVDVVRALAPHSTLAVISTNGIEAIRRILVGADLANCFSHVFSGDVEPRKAVSIRRFLGDHRYAVHRACSPAYHDGEASHASLQAQDVVLVTDTVGDVREAREAGIRAIGVTWGMHSERQLLDAGAERVALWPQELVAWLRDADAPATSCGCSSGSADSCALPPAPAPAVRAAAAPPTGDPVREVARHRRERQLHTRLQAAAATAPAAPGASMASAASGPSARTELMSSLQRILREGDH”, for which the “soluble on expression in E. coli” value is reported as “not soluble”.
For “MADYLLEIGLEEIPAHLVTESENQLIERIKNFFSDNLLDYKKIQTFSTPRRLAVLVHDLSNYSQSKDEELRGPSLKVAKDESGNWSRAAEGFARSQGTSPAEFDERDGYVYLNKHIEGVSAEEILKKIGIEVVEKMKFSTYMKWADFKLEYVRPIRWLVSLLDSKIVPFQILDVKADRFTRGHRFLSGGKISISEAGDYEETLNNAYVIVDAKVRKNSIRNQIRKIADTNDWNLHVDPDLLEEVNNIVEYPTAFAGVFDDKYLNLPEIVLTTSMRDNQRFFYVTNKQGKILPHFISVRNGDSNQIENVVKGNEKVLVARLEDAEFFFEEDQKHNIDFFMKKAERLVFHEKIGTMTEHMKRVEKIAALLANQLAFNDQEKKDLKRAANICKFDLTTAMVGEFAELQGTMAGIYAKIFGENQTVCQALSEQYLPTSSEGDLPKSKVGAMLALADKLDTLFSFFAAGIIPSGSNDPYGLRRAALGIVRIIGQQKWNFSVSKLLHSLKTAVDKHEDGFLIDFADTKEISRKVIEFFLDRIRQQSSDIRYDLLDASTGKVNEGIINY”, the “soluble on expression in E. coli” value is given as “not soluble”.
Next, “ASQKVEKTVIKNETGTISISQLNKNVWVHTELGSFNGEAVPSNGLVLNTSKGLVLVDSSWDDKLTKELIEMVEKKFQKRVTDVIITHAHASRIGGIKTLKERGIKAHSTALTAELAKKNGYEEPLGDLQTVTNLKFGNMKVETFYPGKGHTEDNIVVWLPQYNILVGGCLVKSTSAKDLGNVADAYVNEWSTSIENVLKRYRNINAVVPGHGEVGDKGLLLHTLDLLK”: “soluble”; “MGHHHHHHSHMFPCQHCERKFTTKQGLERHMHIHISTVNHAFKCKYCGKAFGTQINRRRHERRHEAGLKRKPSQ”: “soluble”.
Then “MSQLVFIVFQDNDDSRYLAEAVMEDNPDAEMQHQPAMIRIQAEKRLVINRETMEEKLGRDWDVQEMLINVISIAGNVDEDDDHFILEWN”, with “soluble”.
Next, “MANYYEVLGVQASASPEDIKKAYRKLALRWHPDKNPDNKEEAEKKFKLVSEAYEVLSDSKKRSLYDRAGCDSWRAGGGA”: “soluble”; “MSLGNIKTLLENRFKKPTSDKMESLAKKRLEGELSPFLNGFTNPKLSSQEEAKFRQLLEEYSFSNEISKHDLQQLCHLSAQVKQIHHQAVLLHGERIKKVRELLTSYREGAFSAWLLLTYGNRQTPYNFLVYYELFSTLPDSLKLELEKLPRQAVYTLAAREGTQEKKEAIIRNYQGETKGELLEIIRKEFPLLPTDRRHTPLSQKAFTLLAKGTKLLRQCTDVSHEELIALEKLIKKLQKVTTNLLSNTKVSRNDNEIQNSRNEGHHHHHH”: “soluble”; “MSLAEVSDLAKAIRMEKNLVKEYRDTIGGYFRRFHPEHFVLSRDEFAVEGRKITIESVLAYAFLRADLDFVSAQARKVDPEDMKGSDDAPVNNDEVFGHPSTPSGHGIGGPARFKGGSTASVALISTPTPAPFWHPAAQSTLLCAHVGDSRILLCDTATGLAQPLTSDHHPSSPTESRRLRRYAPAGSMVSGDSFGEERIAGLANSRAFGDMKSKRIGVSAEPELTRVEMGPAQYSFLVLMTDGISGTLSDQEIVDVVKEARTPEDGARNIVKYATEVSNDGDNATCQVVRLGGWERRSEGEGHHHHHH”: “not soluble”.
Regarding “GPGSMYCHAGVPSTSPSPTDFSEVHKILCGHIKQGNNFSVAAAVALEPLHGSSEFWRTCGYRSGIVSALLASSLGVQRETDQLSHLEPMTVADVYAMLRHVVDENAHLRQIIARLESGECDPDDGSGGITSSTERLRSLISEGYDALTGRSSPCMGEYDCGQTPGKWKTCSNGAAGTKRRRDSPEVTEWAYVRPESPVPASETLSPAANSGDDTVDEAEQNNALDVLEQLPALPGTTRTVSSFDAVGEMVNRGAGGPSLHPTNPSEFRVGSERGSTIETHSSSEVSNFANVGVGTSSGKQKRYKFSASEDEAIIKGLARFTKGQQRFQQIYYAYRSVWHPARTVSQLYDHWRGTLRYKVIQQQGYRGKNSVAARSPEKASNMENNE”, the “soluble on expression in E. coli” value is listed as “not soluble”.
Then “MGSDKIHHHHHHMKVEITVSEDRMQAYVTLRKEGSSELPLTKEELLNALLSAGINHGIKEEIIEDLARSPVYNTPVLVAEGTPPVDGEDGRVELLKKIEFSSHEGEKIDLREIPAKQRVIVRKGETIARIIPPTPGKEGMDVFGNPVKPKPGRVPEYHLGYNVATKNNEIIATKSGILVIEPNGTIHVYDTLEVDNVDYSTGNIDFPGKVVVKGDVKPDFVVKAQEDITVKGVIEAATVISFNGSITAGGIKGRGKAFVKAKKTVKAVFIESAEVEAEEVQVEKNIENSAVKAINVVVSGKGGSIRGGITIAQVKVETYFLGSPIGVKTRVEVGVDPEINEKIKLLSAQISLDRENVQKLTKLLVELRKLQGMLKDKFPPDKEALLNKVNNTLINLRDSIQKNEGELKRLKEIAEEMAKNASVVVKEVVYSGVEIVMFERVFRVEKELAKAVFYYRDGEIRVGGYSA”, with “not soluble”.
